A short description of series [1]: Organ distribution of 177Lu-labelled peptides in HT1080 xenograft mice. It is filed as in vivo, BALB/c nu/nu mice. The note with it: male, BALB/c nu/nu, mouse, HT1080 tumor, iv, total radioactivity; for tissue uptake at 1 h: 1 h p.i. The procedure:
(§1) General procedure for radiolabelling with Lu-177.
(§2) • 50 μL 0.25 M Na-Acetate buffer pH 5.2+0.1% Tween 20; • 10 μL [Lu-177]LuCl3 in 0.05 M HCl; and • 2 μL of the diluted peptide (2 nmols). […]
(§3) Organ distribution studies, general method: For organ distribution, the respective dose is prepared by dilution of the labeling reaction mixture in injection buffer (0.25 M Na-Acetate pH 7+0.05% Tween20). The ^177Lu-radiolabeled peptide was injected via the tail vein of the nu/nu mice (50 kBq per mouse), transplanted with the respective cell line. At indicated time points after injection the animals were sacrificed. Blood, heart, lung, spleen, liver, kidney, muscle, brain, femur, and the tumor were dissected, blotted dry, and weighed. The radioactivity was measured with a γ-counter (CobraII; Canberra Packard) along with a sample of the injection solution to calculate the percentage injected dose per gram of tissue (% ID/g).
(§4) The γ- and β-emitter ^177LuCl3 (NEZ307D, Perkin Elmer, in 0.04 M HCl), with a t1/2 of 6.7 days was used for both in vivo biodistribution and internalization studies. Labeling reactions were performed by adding 10 μL ^177LuCl3 (˜10 MBq) in 50 mM HCl, 2 μL of the diluted peptide (1 mM solution in 50 mM HEPES buffer pH 7+0.1% Tween 20 diluted from a 10 mM DMSO stock) to 50 μL 50 mM HEPES buffer pH 7 supplemented with 0.1% Tween 20. The reaction mixture was incubated at 98° C. for 10 minutes. The radiochemical yield (RCY) was determined using high performance liquid chromatography (HPLC) system equipped with a Latek P402 (Latek, Eppelheim, Germany), a HITACHI variable UV detector (absorbance was measured at 214 and 254 nm) and a gamma detector (Bioscan, WA, USA), using a Chromolith RP-18 column (100×4.6 mm; Merck). The analytical HPLC run was performed at 4 mL/min, using a linear A (0.1% trifluoroacetic acid (TFA) in water) to B (0.1% TFA in acetonitrile) gradient (0% B to 100% B in 6 min). Thin-layer chromatography was performed in parallel to confirm the results of the radio-HPLC. The RCY was generally >95%, and thus, the output of labelling reactions was directly diluted with the appropriate buffer and further unlabeled peptide if required, to use in subsequent experiments.
(§5) 5×10^6 cells of HT1080 were subcutaneously inoculated into the right trunk of male 6-week-old BALB/c nu/nu mice (Charles River Laboratories). The tumors were grown for approximately 1 week, to a maximum size of ˜200 mm^3. Respective doses were prepared by mixing a fixed quantity of 5 pmoles ^177Lu labelled peptides (at approx. 50 kBq) with different quantities of non-labelled peptide (derived from 1 mM stock solution in 0.25 M sodium acetate pH 7+0.05% Tween20) in 100 μL injection buffer (0.25 M sodium acetate pH 7+0.05% Tween20). 3 animals were used per dose and timepoint. Radiolabelled peptide solutions were injected via the tail vein, followed by sacrifice at various time points. Organs of interest (blood, heart, lung, spleen, liver, kidney, muscle, small intestine, brain, HT1080 tumor) were dissected, blotted dry, and weighed. The radioactivity was measured using a gamma counter and calculated as % ID/g.

The next series has as its system HT1080 tumor. Described as above. In kind it is in vivo, BALB/c nu/nu mice. The note with it: 1 h post injection. The procedure:
as §1, §2, §3, §4, §5

Molecules are shown by their SMILES. *1 amine or outer side, *2 acyl side, *3 side chain or, on linkers, in order; H or OH if unused. Where a SMILES comes first, the peptide text is derived from it. Bridges are numbered along the chain shown (N, C = ends). [ ]: non-standard residue; d: D form. The star is where a group is joined. DOTA = O=C(O)CN1CCN(CC(=O)O)CCN(CC(=O)*)CCN(CC(=O)O)CC1; 1Nal = N[C@@H](Cc1cccc2ccccc12)C(=O)O; TBMB = c1c(C[*:1])cc(C[*:3])cc1C[*:2]; Tle = CC(C)(C)[C@H](N)C(=O)O

Consider `C[C@H](NC(=O)CN1CCN(CC(=O)O)CCN(CC(=O)O)CCN(CC(=O)O)CC1)C(=O)N[C@H]1CSCc2cc3cc(c2)CSC[C@H](NC(=O)[C@@H](C)NC(=O)[C@H](Cc2cccc4ccccc24)NC(=O)[C@H](CCC(=O)O)NC(=O)[C@H](CC(N)=O)NC(=O)[C@@H](C)NC1=O)C(=O)N[C@@H](CCC(=O)O)C(=O)N[C@@H](CC(=O)O)C(=O)N[C@@H](Cc1ccccc1)C(=O)N[C@@H](Cc1ccc(O)cc1)C(=O)N[C@@H](CC(=O)O)C(=O)N[C@@H](C(C)(C)C)C(=O)N[C@H](C(N)=O)CSC3` [I-23] ({DOTA}-AC[dA]NE[1Nal][dA]CEDFYD[Tle]C-NH2; linker 2-8-15 via TBMB), for which the tissue uptake at 1 h in series [1] (50 kBq per mouse) stood at 12 ± 2.37 %ID/g. Moreover, the tissue uptake at 24 h in series [1] (50 kBq per mouse, 24 h p.i.) amounted to 1.54 ± 0.06 %ID/g. Besides, in series [1], the tissue uptake at 1 h was determined as 12.4 %ID/g. In addition, in the series with HT1080 tumor, the “blocking of tumor uptake at a dose of 500 pmoles” value is listed as “slightly blocked”, the “blocking of tumor uptake using 5 nmoles” value is “nearly completely blocked” and the “tumor uptake compared to 17-69-07-N144” value is reported as “significantly higher tumor uptake”.

For the origin of these results see patent US12552837B2, “Bicyclic peptide ligands with detectable moieties and uses thereof” (BicycleRD Limited, priority 2017, dated 2026).
